Source: article PMC8567388 (iScience, 2021)
Ends that are not written are not given here.

Legend:
PSD-95 61-724 6xHis [1] = biological target: T1, PSD-95 61-724 6xHis (human, UniProt P78352 61-724); assay: fluorescence polarisation
[2] = biological target: T2, PSD-95 61-724 6xHis pSer73 (human, UniProt P78352 61-724, phosphoserine at 73); assay: fluorescence polarisation
[3] = biological target: T3, PSD-95 61-724 6xHis pSer142 (human, UniProt P78352 61-724, phosphoserine at 142); assay: fluorescence polarisation
[4] = biological target: T2, PSD-95 61-724 6xHis pSer73; assay: co-sedimentation
[5] = biological target: T3, PSD-95 61-724 6xHis pSer142; assay: co-sedimentation
PSD-95 61-724 6xHis [6] = biological target: T1, PSD-95 61-724 6xHis; assay: co-sedimentation

B1: Peptide ligand: GluN2B (TAMRA-NNG-YEKLSSIESDV) (peptide)
peptide: {TAMRA}-NNGYEKLSSIESDV
Kd (PSD-95 61-724 6xHis [1]): 1200 nM

B2: Peptide ligand: Stargazin (TAMRA-NNG-NTANRRTTPV) (peptide)
peptide: {TAMRA}-NNGNTANRRTTPV
Kd (PSD-95 61-724 6xHis [1]): 2700 nM

B3: Peptide ligand: GluN2A (TAMRA-NNG-KKMPSIESDV) (peptide)
peptide: {TAMRA}-NNGKKMPSIESDV
binding result [2]: binds | binding result (PSD-95 61-724 6xHis [1]): binds

B4: Peptide ligand: Kv1.4 (TAMRA-NNG-SNAKAVETDV) (peptide)
peptide: {TAMRA}-NNGSNAKAVETDV
binding result [3]: binds | binding result (PSD-95 61-724 6xHis [1]): binds

B5: Peptide ligand: Kv1.7 (TAMRA-NNG-PAGKHMVTEV) (peptide)
peptide: {TAMRA}-NNGPAGKHMVTEV
binding result [3]: binds | binding result (PSD-95 61-724 6xHis [1]): binds

B6: GluN2B cytoplasmic tail (aa 1170-1482) (domain or fragment)
chain: GGPCTNRSHLKHGTGEKHGVVGGVPAPWEKNLTNVDWEDRSGGNFCRSCPSKLHNYSSTVAGQNSGRQACIRCEACKKAGNLYDISEDNSLQELDQPAAPVAVTSNASSTKYPQSPTNSKAQKKNRNKLRRQHSYDTFVDLQKEEAALAPRSVSLKDKGRFMDGSPYAHMFEMPAGESSFANKSSVPTAGHHHNNPGSGYMLSKSLYPDRVTQNPFIPTFGDDQCLLHGSKSYFFRQPTVAGASKTRPDFRALVTNKPVVVTLHGAVPGRFQKDICIGNQSNPCVPNNKNPRAFNGSSNGHVYEKLSSIESDV
binding result [4]: binds | binding result [5]: binds | binding result (PSD-95 61-724 6xHis [6]): binds
